Assay results reported in patent US20240109958.

Columns and labels:
[1] = target: Ub vinyl sulfone HA-tagged probe (Ub-VS-HA; Cat #U-212, Boston Biochem) (UniProt P0CG48)
[2] = target: lysine-less catalytically inactive UCHL1 (UniProt P09936)
[3] = target: lysine-less catalytically inactive UCHL5 (UniProt Q9Y5K5)

| Substance | modification by the suicide probe Ub-VS (immunoblot) [1] | in vitro ubiquitination assay with purified proteins (immunoblot) [2] | in vitro ubiquitination assay with purified proteins (immunoblot) [3] |
| --- | --- | --- | --- |
| N-terminally ubiquitinated mimetic Ub^G76V_UCHL1 | Ub^G76V_UCHL1 remained largely unmodified | – | – |
| N-terminally ubiquitinated mimetic Ub^G76V_UCHL5 | Ub^G76V_UCHL5 rapidly reacted with Ub-VS | – | – |
| UBE2W (Cat #E2-740, Boston Biochem) | – | UBE2W can monoubiquitinate lysine-less versions of both UCHL1 and UCHL5 | UBE2W can monoubiquitinate lysine-less versions of both UCHL1 and UCHL5 |
